Measured values as given in patent US20190092819A1 (published 2019).

B1: dimeric Ad3 fiber knob mutant D261N (ligand)
chain: MKVSALKEKVSALKEKVSALKEKVSALKEKVSALKEGSGGGSGGGSGGGSNSIALKNNTLWTGPKPEANCIIEYGKQNPDSKLTLILVKNGGIVNGYVTLMGASDYVNTLFKNKNVSINVELYFDATGHILPDSSSLKTDLELKYKQTADFSARGFMPSTTAYPFVLPNAGTHNENYIFGQCYYKASNGALFPLEVTVMLNKRLPDSRTSYVMTFLWSLNAGLAPETTQATLITSPFTFSYIREDD
B2: dimeric Ad3 fiber knob mutant N186D (ligand)
chain: MKVSALKEKVSALKEKVSALKEKVSALKEKVSALKEGSGGGSGGGSGGGSNSIALKNNTLWTGPKPEANCIIEYGKQNPDSKLTLILVKNGGIVNGYVTLMGASDYVNTLFKDKNVSINVELYFDATGHILPDSSSLKTDLELKYKQTADFSARGFMPSTTAYPFVLPNAGTHNENYIFGQCYYKASDGALFPLEVTVMLNKRLPDSRTSYVMTFLWSLNAGLAPETTQATLITSPFTFSYIREDD
notes: Self-dimerizing form (JO-1 format)
B3: dimeric Ad3 fiber knob mutant D261N, L296R (ligand)
chain: MKVSALKEKVSALKEKVSALKEKVSALKEKVSALKEGSGGGSGGGSGGGSNSIALKNNTLWTGPKPEANCIIEYGKQNPDSKLTLILVKNGGIVNGYVTLMGASDYVNTLFKNKNVSINVELYFDATGHILPDSSSLKTDLELKYKQTADFSARGFMPSTTAYPFVLPNAGTHNENYIFGQCYYKASNGALFPLEVTVMLNKRLPDSRTSYVMTFLWSLNAGRAPETTQATLITSPFTFSYIREDD
notes: JO-1 format; Positions count on the full Ad3 fiber; also called combination of D261N and L296R
B4: dimeric Ad3 fiber knob mutant N186D, D261N (ligand)
chain: MKVSALKEKVSALKEKVSALKEKVSALKEKVSALKEGSGGGSGGGSGGGSNSIALKNNTLWTGPKPEANCIIEYGKQNPDSKLTLILVKNGGIVNGYVTLMGASDYVNTLFKDKNVSINVELYFDATGHILPDSSSLKTDLELKYKQTADFSARGFMPSTTAYPFVLPNAGTHNENYIFGQCYYKASNGALFPLEVTVMLNKRLPDSRTSYVMTFLWSLNAGLAPETTQATLITSPFTFSYIREDD
notes: JO-1 format; Positions count on the full Ad3 fiber; also called combination of N186D and D261N
B5: dimeric Ad3 fiber knob mutant E299V (ligand)
chain: MKVSALKEKVSALKEKVSALKEKVSALKEKVSALKEGSGGGSGGGSGGGSNSIALKNNTLWTGPKPEANCIIEYGKQNPDSKLTLILVKNGGIVNGYVTLMGASDYVNTLFKNKNVSINVELYFDATGHILPDSSSLKTDLELKYKQTADFSARGFMPSTTAYPFVLPNAGTHNENYIFGQCYYKASDGALFPLEVTVMLNKRLPDSRTSYVMTFLWSLNAGLAPVTTQATLITSPFTFSYIREDD
notes: JO-1 format
B6: dimeric Ad3 fiber knob mutant F265L (ligand)
chain: MKVSALKEKVSALKEKVSALKEKVSALKEKVSALKEGSGGGSGGGSGGGSNSIALKNNTLWTGPKPEANCIIEYGKQNPDSKLTLILVKNGGIVNGYVTLMGASDYVNTLFKNKNVSINVELYFDATGHILPDSSSLKTDLELKYKQTADFSARGFMPSTTAYPFVLPNAGTHNENYIFGQCYYKASDGALLPLEVTVMLNKRLPDSRTSYVMTFLWSLNAGLAPETTQATLITSPFTFSYIREDD
notes: JO-1 format
B7: dimeric Ad3 fiber knob mutant L296R (ligand)
chain: MKVSALKEKVSALKEKVSALKEKVSALKEKVSALKEGSGGGSGGGSGGGSNSIALKNNTLWTGPKPEANCIIEYGKQNPDSKLTLILVKNGGIVNGYVTLMGASDYVNTLFKNKNVSINVELYFDATGHILPDSSSLKTDLELKYKQTADFSARGFMPSTTAYPFVLPNAGTHNENYIFGQCYYKASDGALFPLEVTVMLNKRLPDSRTSYVMTFLWSLNAGRAPETTQATLITSPFTFSYIREDD
notes: JO-1 format
B8: dimeric Ad3 fiber knob mutant S190P (ligand)
chain: MKVSALKEKVSALKEKVSALKEKVSALKEKVSALKEGSGGGSGGGSGGGSNSIALKNNTLWTGPKPEANCIIEYGKQNPDSKLTLILVKNGGIVNGYVTLMGASDYVNTLFKNKNVPINVELYFDATGHILPDSSSLKTDLELKYKQTADFSARGFMPSTTAYPFVLPNAGTHNENYIFGQCYYKASDGALFPLEVTVMLNKRLPDSRTSYVMTFLWSLNAGLAPETTQATLITSPFTFSYIREDD
notes: JO-1 format; also called 5190P
B9: dimeric Ad3 fiber knob mutant V189G (ligand)
chain: MKVSALKEKVSALKEKVSALKEKVSALKEKVSALKEGSGGGSGGGSGGGSNSIALKNNTLWTGPKPEANCIIEYGKQNPDSKLTLILVKNGGIVNGYVTLMGASDYVNTLFKNKNGSINVELYFDATGHILPDSSSLKTDLELKYKQTADFSARGFMPSTTAYPFVLPNAGTHNENYIFGQCYYKASDGALFPLEVTVMLNKRLPDSRTSYVMTFLWSLNAGLAPETTQATLITSPFTFSYIREDD
notes: JO-1 format
B10: Ad3-S5/Kn (ligand, human adenovirus serotype 3, UniProt P04501 60-319, looked up)
chain: SLQLKVGSGLTVDTTDGSLEENIKVNTPLTKSNHSINLPIGNGLQIEQNKLCSKLGNGLTFDSSNSIALKNNTLWTGPKPEANCIIEYGKQNPDSKLTLILVKNGGIVNGYVTLMGASDYVNTLFKNKNVSINVELYFDATGHILPDSSSLKTDLELKYKQTADFSARGFMPSTTAYPFVLPNAGTHNENYIFGQCYYKASDGALFPLEVTVMLNKRLPDSRTSYVMTFLWSLNAGLAPETTQATLITSPFTFSYIREDD
notes: domain: fiber knob with shaft motifs (S5)
B11: Ad3-S4/Kn (ligand, human adenovirus serotype 3, UniProt P04501 77-319, looked up)
chain: SLEENIKVNTPLTKSNHSINLPIGNGLQIEQNKLCSKLGNGLTFDSSNSIALKNNTLWTGPKPEANCIIEYGKQNPDSKLTLILVKNGGIVNGYVTLMGASDYVNTLFKNKNVSINVELYFDATGHILPDSSSLKTDLELKYKQTADFSARGFMPSTTAYPFVLPNAGTHNENYIFGQCYYKASDGALFPLEVTVMLNKRLPDSRTSYVMTFLWSLNAGLAPETTQATLITSPFTFSYIREDD
notes: domain: fiber knob with shaft motifs (S4)
B12: Ad3-S3/Kn (ligand, human adenovirus serotype 3, UniProt P04501 94-319, looked up)
chain: SINLPIGNGLQIEQNKLCSKLGNGLTFDSSNSIALKNNTLWTGPKPEANCIIEYGKQNPDSKLTLILVKNGGIVNGYVTLMGASDYVNTLFKNKNVSINVELYFDATGHILPDSSSLKTDLELKYKQTADFSARGFMPSTTAYPFVLPNAGTHNENYIFGQCYYKASDGALFPLEVTVMLNKRLPDSRTSYVMTFLWSLNAGLAPETTQATLITSPFTFSYIREDD
notes: domain: fiber knob with shaft motifs (S3)
B13: Ad3-S2/Kn (ligand, human adenovirus serotype 3, UniProt P04501 108-319, looked up)
chain: NKLCSKLGNGLTFDSSNSIALKNNTLWTGPKPEANCIIEYGKQNPDSKLTLILVKNGGIVNGYVTLMGASDYVNTLFKNKNVSINVELYFDATGHILPDSSSLKTDLELKYKQTADFSARGFMPSTTAYPFVLPNAGTHNENYIFGQCYYKASDGALFPLEVTVMLNKRLPDSRTSYVMTFLWSLNAGLAPETTQATLITSPFTFSYIREDD
notes: domain: fiber knob with shaft motifs (S2)

Tests used:
[1] = target: Desmoglein 2 (DSG2) on cells (human) (UniProt Q14126); assay: cell-based or functional assay
[2] = target: Desmoglein 2 (DSG2) on cells (human) (UniProt Q14126); assay: competition: attachment of 3H-labelled Ad3 virus (competitor) to HeLa cells after pre-incubation with dimeric knob; scintillation counting
[3] = target: T1, Desmoglein 2 (DSG2) on cells (human, UniProt Q14126 50-1118); assay: cell-based or functional assay
T1 sequence (looked up): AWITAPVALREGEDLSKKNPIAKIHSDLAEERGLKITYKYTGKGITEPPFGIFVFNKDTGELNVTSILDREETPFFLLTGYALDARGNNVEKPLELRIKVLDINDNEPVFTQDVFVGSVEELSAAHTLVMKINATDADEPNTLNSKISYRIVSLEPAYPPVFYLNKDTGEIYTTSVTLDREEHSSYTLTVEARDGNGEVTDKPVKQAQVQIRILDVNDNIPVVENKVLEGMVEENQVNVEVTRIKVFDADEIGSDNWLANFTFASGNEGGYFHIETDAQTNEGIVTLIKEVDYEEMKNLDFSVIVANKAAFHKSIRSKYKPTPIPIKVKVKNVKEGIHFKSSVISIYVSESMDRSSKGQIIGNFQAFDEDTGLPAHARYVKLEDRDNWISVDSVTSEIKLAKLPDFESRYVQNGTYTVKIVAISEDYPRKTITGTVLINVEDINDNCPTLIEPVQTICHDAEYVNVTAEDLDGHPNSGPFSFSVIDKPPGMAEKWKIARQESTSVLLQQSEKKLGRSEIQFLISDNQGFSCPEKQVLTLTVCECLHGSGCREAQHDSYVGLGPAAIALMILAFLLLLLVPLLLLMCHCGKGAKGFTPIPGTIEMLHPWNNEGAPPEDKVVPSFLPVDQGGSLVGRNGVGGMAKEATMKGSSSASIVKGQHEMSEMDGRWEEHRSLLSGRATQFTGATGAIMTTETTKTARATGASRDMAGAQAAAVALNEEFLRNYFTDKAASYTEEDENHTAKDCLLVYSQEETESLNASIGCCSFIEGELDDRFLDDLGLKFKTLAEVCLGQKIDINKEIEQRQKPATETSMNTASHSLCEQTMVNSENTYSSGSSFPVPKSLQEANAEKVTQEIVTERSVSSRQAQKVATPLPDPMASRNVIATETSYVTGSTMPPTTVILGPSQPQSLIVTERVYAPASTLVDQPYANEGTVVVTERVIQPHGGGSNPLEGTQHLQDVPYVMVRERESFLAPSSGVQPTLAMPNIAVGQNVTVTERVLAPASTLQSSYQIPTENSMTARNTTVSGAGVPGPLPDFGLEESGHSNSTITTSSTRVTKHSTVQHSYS

[4] = target: T1, Desmoglein 2 (DSG2) on cells; assay: competition: attachment of 3H-labelled Ad3 virus (competitor) to HeLa cells after pre-incubation with dimeric knob; scintillation counting
[5] = target: Recombinant human DSG2 protein (desmoglein 2), soluble (human) (UniProt Q14126); assay: Western blot of purified dimeric knob (trimer band) probed with soluble recombinant DSG2, anti-DSG2 mAb and anti-mouse IgG-HRP; bands quantified
soluble CD46 = target: T2, soluble CD46 (UniProt P15529 35-343, limits assumed); assay: Western blot probed with soluble CD46 and anti-CD46 mAb
T2 construct: also called sCD46
T2 sequence (looked up): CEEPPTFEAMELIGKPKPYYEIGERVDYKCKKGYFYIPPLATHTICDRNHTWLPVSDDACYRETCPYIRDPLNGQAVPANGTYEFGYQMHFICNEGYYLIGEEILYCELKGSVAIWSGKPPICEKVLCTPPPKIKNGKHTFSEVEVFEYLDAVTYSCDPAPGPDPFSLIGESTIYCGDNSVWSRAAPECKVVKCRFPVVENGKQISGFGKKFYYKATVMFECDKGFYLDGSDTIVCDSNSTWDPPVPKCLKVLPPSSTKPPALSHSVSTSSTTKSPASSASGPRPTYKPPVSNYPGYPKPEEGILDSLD

Row | Molecule | Inhibition of infection in the presence of dimeric knob (JO-1 = 100%) [3] | Inhibition of attachment in the presence of dimeric knob (JO-1 = 100%) [4] | other results
1 | dimeric Ad3 fiber knob mutant N186D, D261N, L296R (ligand) |  |  | Inhibition of infection in the presence of dimeric knob (JO-1 = 100%) (% (JO-1 = 100%)) [1]: 0; Inhibition of attachment in the presence of dimeric knob (JO-1 = 100%) (% (JO-1 = 100%)) [2]: 18.5
2 | B1 |  |  | Inhibition of infection in the presence of dimeric knob (JO-1 = 100%) (% (JO-1 = 100%)) [1]: 5.3; Inhibition of attachment in the presence of dimeric knob (JO-1 = 100%) (% (JO-1 = 100%)) [2]: 45
3 | B2 | 32.7 % (JO-1 = 100%) | 56.5 % (JO-1 = 100%) | 
4 | B3 | 1.5 % (JO-1 = 100%) | 20.1 % (JO-1 = 100%) | Western blot Residual DSG2 binding (wtAd3 knob = 100%) [5]: 7%
5 | B4 | 5.2 % (JO-1 = 100%) | 23.5 % (JO-1 = 100%) | Western blot Residual DSG2 binding (wtAd3 knob = 100%) [5]: 7%
6 | B5 | 50.7 % (JO-1 = 100%) | 97.3 % (JO-1 = 100%) | 
7 | B6 | 17.6 % (JO-1 = 100%) | 55.6 % (JO-1 = 100%) | 
8 | B7 | 5.1 % (JO-1 = 100%) | 73.7 % (JO-1 = 100%) | 
9 | B8 | 30.9 % (JO-1 = 100%) | 73.4 % (JO-1 = 100%) | 
10 | B9 | 54 % (JO-1 = 100%) | 81 % (JO-1 = 100%) | 
11 | B10 |  |  | binding result (soluble CD46): no binding
12 | B11 |  |  | binding result (soluble CD46): no binding
13 | B12 |  |  | binding result (soluble CD46): no binding
14 | B13 |  |  | binding result (soluble CD46): no binding
